Where a chain is given by its changes, count along the chain named. Names may count otherwise. Like-named read-outs stand apart in the source and are kept apart here. Each block holds one binder with its values, some of them ahead of it.
Legend:
[1] = biological target: T1, recombinant CD3e antigen (Human CD3 epsilon Protein, His Tag, ACRO Cat: CDE-H5223) (human, UniProt P07766 23-126); assay: BLI (Octet R8), recombinant CD3e antigen
T1 construct: Bought protein; also called CD3 antigen; not shown: His tag
Excerpt: (§1) The recombinant CD3e antigen (Human CD3 epsilon Protein, His Tag, ACRO Cat: CDE-H5223) and recombinant GPRC5D antigen (Human GPRC5D protein-Flag-His tag (51.8KD) ACRO Cat: GPD-H52D3) were immobilized on a chip and detected by Octet® R8 biomolecular interaction analysis system.

[2] = biological target: T2, recombinant GPRC5D antigen (Human GPRC5D protein-Flag-His tag (51.8KD) ACRO Cat: GPD-H52D3) (human, UniProt Q9NZD1 1-345, limits assumed); assay: BLI (Octet R8), recombinant GPRC5D antigen
T2 construct: Bought protein; also called CPRG5D; not shown: Flag-His tag
Excerpt: as §1

human GPRC5D on cells [3] = biological target: T3, human GPRC5D on cells (human, UniProt Q9NZD1 1-345); assay: cell-based binding assay on HEK293T-hGPRC5D
T3 construct: whole, on cells; Either overexpressed in HEK293, CHOS or HEK293T cells, or naturally expressed on human myeloma cell lines; also called hGPRC5D; HEK293-hGPRC5D
Method: (§2) HEK293T-hGPRC5D or HEK293T-cynoGPRC5D cells in logarithmic growth phase were inoculated into a 96-well culture plate, and the antibodies at different concentrations (200, 66.7, 22.22, 7.41, 2.47, 0.82, 0.27, 0.09, 0.03, and 0.01 nM) was added. 2 duplicate wells were set for each concentration and a negative control (PBS) well was also set. The cells were incubated at 25° C. for about 60 minutes and then developed and detected. The raw data of the test was the difference between the detection wavelength and the reference wavelength. A dose-response curve was fitted using statistical software, based on OD value and the logarithmic value of the concentration, from which the EC50 was obtained.

[4] = biological target: T4, cynomolgus monkey GPRC5D on HEK293T cells (cynomolgus monkey); assay: cell-based binding assay on HEK293T-cynoGPRC5D
T4 construct: whole, on cells; also called HEK293T-cynoGPRC5D; Cynomolgus GPRC5D
Method: as §2

[5] = biological target: T2, recombinant GPRC5D antigen (Human …); assay: BLI (Octet R8), recombinant GPRC5D antigen; remark: listed apart in the source
Excerpt: The recombinant GPRC5D antigen (Human GPRC5D protein-Flag-His tag (51.8KD) ACRO Cat: GPD-H52D3) was immobilized on a chip and detected by Octet® R8 biomolecular interaction analysis system.

human GPRC5D on cells [6] = biological target: T3, human GPRC5D on cells; assay: flow cytometry, MM.1R cell binding
Method: (§3) After the cells were digested with TrypLE, the digested cells were centrifuged and resuspended in a DPBS solution containing 2% BSA (FACS buffer, 4° C.), added into a 96-well plate with a U-shaped bottom in an amount of 5× 10⁵ cells/100 μl/well, added with antibody diluted over concentration gradient, and incubated at 4° C. for 1 hr. After centrifugation, the supernatant was discarded. 100 μl of anti-human IgG Fc-APC secondary antibody was added to each well and incubated at 4° C. for 1 hr. Then the cells were washed once with a FACS buffer, and resuspended in 200 μl FACS buffer. The fluorescence signal was read on BD CantoII.

human GPRC5D on cells [7] = biological target: T3, human GPRC5D on cells; assay: flow cytometry, NCI-H929 cell binding
Method: as §3

human GPRC5D on cells [8] = biological target: T3, human GPRC5D on cells; assay: flow cytometry, RPMI-8226 cell binding
Method: as §3

human GPRC5D on cells [9] = biological target: T3, human GPRC5D on cells; assay: FACS on MM.1R cells (natural GPRC5D), anti-human IgG Fc-APC secondary; fit table under the curves
Method: as §3

human GPRC5D on cells [10] = biological target: T3, human GPRC5D on cells; assay: FACS on NCI-H929 cells (natural GPRC5D), anti-human IgG Fc-APC secondary; fit table under the curves
Method: as §3

human GPRC5D on cells [11] = biological target: T3, human GPRC5D on cells; assay: FACS on RPMI-8226 cells (natural GPRC5D), anti-human IgG Fc-APC secondary; fit table under the curves
Method: as §3

human GPRC5D on cells [12] = biological target: T3, human GPRC5D on cells; assay: FACS on CHOS cells expressing hGPRC5D (sheet title: CHOS-hGPRC5D sorted), anti-human IgG Fc-APC secondary; fit table under the curves
Method: (§4) After centrifugation, […] and CHOS-hGPRC5D cells expressing hGPRC5D were resuspended in a DPBS solution (FACS buffer, 4° C.) containing 2% BSA, added to a 96-well plate with a U-shaped bottom in an amount of 5×10⁵ cells/100 μl/well, added with antibody diluted over concentration gradient, and incubated at 4° C. for 1 hr. After centrifugation, the supernatant was discarded. 100 μl of anti-human IgG Fc-APC secondary antibody was added to each well and incubated at 4° C. for 1 hr. Then the cells were washed once with a FACS buffer, and resuspended in 200 μl FACS buffer. The fluorescence signal was read on BD CantoII.

human GPRC5D on cells [13] = biological target: T3, human GPRC5D on cells; assay: FACS on HEK293 cells expressing hGPRC5D (sheet title: 293T-hGPRC5D sorted), anti-human IgG Fc-APC secondary; fit table under the curves
Method: as §4

human GPRC5D on cells [14] = biological target: T3, human GPRC5D on cells; assay: FACS on CHOS cells expressing hGPRC5D (sheet title: CHOS-hGPRC5D sorted), anti-human IgG Fc-APC secondary; fit table under the curves, unit from the axis Log Conc.(ug/ml)
Method: as §4

human GPRC5D on cells [15] = biological target: T3, human GPRC5D on cells; assay: FACS on HEK293 cells expressing hGPRC5D (sheet title: 293T-hGPRC5D sorted), anti-human IgG Fc-APC secondary; fit table under the curves, unit from the axis Log Conc.(ug/ml)
Method: as §4

T3 sequence (Q9NZD1 whole entry): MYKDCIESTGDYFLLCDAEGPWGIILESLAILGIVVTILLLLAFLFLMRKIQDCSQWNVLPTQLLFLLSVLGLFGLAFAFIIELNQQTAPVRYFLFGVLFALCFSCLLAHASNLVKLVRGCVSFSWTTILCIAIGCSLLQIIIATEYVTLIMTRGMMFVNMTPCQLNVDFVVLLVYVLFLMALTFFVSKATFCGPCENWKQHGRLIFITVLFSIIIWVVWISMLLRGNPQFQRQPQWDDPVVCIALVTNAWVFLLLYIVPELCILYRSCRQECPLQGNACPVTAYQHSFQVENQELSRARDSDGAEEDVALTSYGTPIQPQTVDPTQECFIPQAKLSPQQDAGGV
T2 sequence (Q9NZD1 whole entry): as above
T1 sequence (P07766 23-126 limits assumed): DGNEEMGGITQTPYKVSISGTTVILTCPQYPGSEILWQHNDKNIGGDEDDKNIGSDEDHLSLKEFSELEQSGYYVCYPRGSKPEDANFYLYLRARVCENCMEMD

- Kd [1]: 30 nM
- koff [1]: 0.00381 s⁻¹
- kon [1]: 127000 M⁻¹ s⁻¹
- Kd [2]: 9.47 nM
- koff [2]: 0.000596 s⁻¹
- kon [2]: 62900 M⁻¹ s⁻¹
- EC50 (human GPRC5D on cells [3]): 3.86 nM
- EC50 [4]: 10.1 nM
B1: humanized CD3xGPRC5D bispecific antibody 22A8 (Structure D) (bispecific antibody)
heavy 1: QVQLVQSGAEVKKPGSSVKVSCRASGYPFTNYWMHWVRQAPGQGLEWIGEINPSNGRTNYNEKFKSRATLTLDKLTSTAYMELSSLTSEDTALYYCARGFAYWGQGTLVTVSSASTKGPSVFPLAPSSKSTSGGTAALGCLVKDYFPEPVTVSWNSGALTSGVHTFPAVLQSSGLYSLSSVVTVPSSSLGTQTYICNVNHKPSNTKVDKKVEPKSCDKTHTCPPCPAPPVAGPSVFLFPPKPKDTLMISRTPEVTCVVVDVSQEDPEVKFNWYVDGVEVHNAKTKPREEQFNSTYRVVSVLTVLHQDWLNGKEYKCKVSNKGLPSSIEKTISKAKGQPREPQVYTLPPSRDELTKNQVSLSCAVKGFYPSDIAVEWESNGQPENNYKTTPPVLDSDGSFFLVSKLTVDKSRWQQGNVFSCSVMHEALHNRFTQKSLSLSP
light: EIVLTQSPGTLSLSPGERATLSCSASSSVSFMHWYQQKPGQAPRRWIYDTTKLASGIPDRFSGSGSGTDYTLTISRLEPEDFAVYYCQQWNSHPLTFGQGTTVEIKRTVAAPSVFIFPPSDEQLKSGTASVVCLLNNFYPREAKVQWKVDNALQSGNSQESVTEQDSKDSTYSLSSTLTLSKADYEKHKVYACEVTHQGLSSPVTKSFNRGEC
heavy 2: EVQLVESGGGLVQPGGSLRLSCAASGFTFSTYAMNWVRQAPGKGLEWVGRIRSKYNNYATYYADSVKGRFTISRDDSKNSLYLQMNSLRAEDTAVYYCVRHGNFGTSYVSWFAYWGQGTLVTVSSASTKGPSVFPLAPSSKSTSGGTAKLGCLVKDYFPEPVTVSWNSGALTSGVHTFPACLQSSGLYSLSSVVTVPSSSLGTQTYICNVNHKPSNTKVDKKVEPKSSDKTHTCPPCPAPELLAGPDVFLFPPKPKDTLMISRTPEVTCVVVDVSHEDPEVKFNWYVDGVEVHNAKTKPREEQYNSTYRVVSVLTVLHQDWLNGKEYKCKVSNKALPLPEEKTISKAKGQPREPQVYTLPPSRDELTKNQVSLWCLVKGFYPSDIAVEWESNGQPENNYKTTPPVLDSDGSFFLYSKLTVDKSRWQQGNVFSCSVMHEALHNHYTQKSLSLSP
chain: QVQLVQSGAEVKKPGSSVKVSCRASGYPFTNYWMHWVRQAPGQGLEWIGEINPSNGRTNYNEKFKSRATLTLDKLTSTAYMELSSLTSEDTALYYCARGFAYWGQGTLVTVSSASTKGPSVFPLAPSSKSTSGGTAALGCLVKDYFPEPVTVSWNSGALTSGVHTFPAVLQSSGLYSLSSVVTVPSSSLGTQTYICNVNHKPSNTKVDKKVEPKSCDGGGGSGGGGSQAVVTQEPSLTVSPGGTVTLTCRSSTGAVTTSNYANWVQQKPGQAPRGLIGGTNKRAPWTPARFSGSLLGGKAALTLSGAQAEDEADYYCALWYSNLWVFGGGTKLTVLRTVAAPSVDIFPPSDEQLKSGTASVVCLLNNFYPREAKVQWKVDNALQSGNSCESVTEQDSKDSTYSLSSTLTLSKADYEKHKVYACEVTHQGLSSPVTKSFNRGES
notes: First polypeptide: VH1(GPRC5D, humanized)-CH1a-Fc; Second and fifth polypeptides are identical: VL(GPRC5D, humanized)-CLa; Third polypeptide: VH2(CD3)-CH1b-Fc; Fourth polypeptide: VH3(GPRC5D, humanized)-CH1a-linker-VL2(CD3)-CLb; Fc mutations are knob-into-hole (T366W; Y407V, T366S, L368A)

- Kd [5]: 5.67 nM
- koff [5]: 0.000489 s⁻¹
- kon [5]: 86200 M⁻¹ s⁻¹
B2: humanized antibody 22Mono5UQY (antibody, human IgG1, V domains shown)
VH: QVQLQESGPGLVKPSETLSLTCTASGYPFTNYWMHWVRQPPGKGLEWIGEINPSNGRTNYNEKFKSRATLSLDKSKNQASLNLDSVSAADTAIYYCARGFAYWGKGSTVTVSS
VL: AIQLTQSPSSLSASVGDRVTITCSASSSVSFMHWYQQKPGKAPKRWIYDTTKLASGVPSRFSGSGSGTDYTFTISSLQPEDIATYYCQQWNSHPLTFGPGTKVDIK
notes: also called 22MonoSUQY

- EC50 (human GPRC5D on cells [6]): 0.62 µg/mL
- EC50 (human GPRC5D on cells [7]): 0.485 µg/mL
- EC50 (human GPRC5D on cells [8]): 0.916 µg/mL
- LogEC50 (human GPRC5D on cells [9]): -0.207 log(ug/ml)
- LogEC50 (human GPRC5D on cells [10]): -0.314 log(ug/ml)
- LogEC50 (human GPRC5D on cells [11]): -0.0379 log(ug/ml)
- LogEC50 (human GPRC5D on cells [12]): 0.198 log(ug/ml)
- LogEC50 (human GPRC5D on cells [13]): -0.309 log(ug/ml)
- EC50 (human GPRC5D on cells [14]): 1.58 µg/mL
- EC50 (human GPRC5D on cells [15]): 0.49 µg/mL
B3: ch-72C7 chimeric recombinant antibody (antibody, V domains shown)
VH: QVQLQQPGAELVKPGTSVKLSCKASGYPFTNYWMHWVRQRPGQGLEWIGEINPSNGRTNYNEKFKSLATLTLDKSSSTAYMHLNSLTSEDSAVYYCARGFAYWGQGTLVTVSA
VL: QIVLSQFPAIMSASPGEKVTMTCSASSSVSFMHWYQQKSGTSPKRWIYDTTKLASGVPARFTGSGSGTSYSLTISSMEAEDAATYYCQQWNSHPLTFGPGTKLELK
notes: also called ch-72C7 antibody; antibody ch-72C7

- Kd [5]: 0.787 nM
- koff [5]: 0.000119 s⁻¹
- kon [5]: 151000 M⁻¹ s⁻¹
B4: humanized antibody 22Mono5JO4 (antibody, human IgG1, V domains shown)
VH: QVQLVQSGAEVKKPGSSVKVSCRASGYPFTNYWMHWVRQAPGQGLEWIGEINPSNGRTNYNEKFKSRATLTLDKLTSTAYMELSSLTSEDTALYYCARGFAYWGQGTLVTVSS
VL: EIVLTQSPGTLSLSPGERATLSCSASSSVSFMHWYQQKPGQAPRRWIYDTTKLASGIPDRFSGSGSGTDYTLTISRLEPEDFAVYYCQQWNSHPLTFGQGTTVEIK

- Kd [5]: 25.6 nM
- koff [5]: 0.002 s⁻¹
- kon [5]: 78000 M⁻¹ s⁻¹
B5: humanized antibody 22Mono3L7F (antibody, human IgG1, V domains shown)
VH: EVTLKESGPVLVKPTETLTLTCTASGYPFTNYWMHWVRQPPGKALEWIGEINPSNGRTNYNEKFKSRATLSLDKSKSQAVLTMTNMDPVDTATYYCARGFAYWGQGTLVTVSS
VL: B4 VL with G9A, D59A, R76S, T102K, V103L
notes: also called 22monoO3L7

- Kd [5]: 16.9 nM
- koff [5]: 0.00114 s⁻¹
- kon [5]: 67300 M⁻¹ s⁻¹
B6: humanized antibody 22Mono4DN4 (antibody, human IgG1, V domains shown)
VH: ELVQSGAEVKKPGSSVKVSCKASGYPFTNYWMHWVRQAPGQGLEWIGEINPSNGRTNYNEKFKSRATLTLDKSTSTAYMELSSLRSEDTAVYYCARGFAYWGQGTLVTVSS
VL: B4 VL with G9A, I57V, D59A, R76S, T102K
